PMC8503589 (The Journal of Biological Chemistry, 2021)

B1: L. ferroxidans LDC (Leptospirillum ferrooxidans C2-3) (protein)
chain: MTPYDHNRTPLFDAMVALAESRKVSFHTPGHKSGKGISTRFRKFVGPKVFSIDLTCLDEVDSLQKPRGVIREAQELAADIYGADQSFFLVNGTSGGNQAMILSVMKPGEPILLTRILHKSVVSGLIMTDCKPIFIPLQSTPDCDLLLNDRTDTIIQAMNRHPEAKKLFLTSPNYYGVTLDLPTIIQEAHSRGVTVLVDEAHGPHLHFHDDLPPSAMASNADLCVQSTHKIIGGMTQASILHAKKANIDIERLTSVLRYLQTTSPSYILMASLDLARMQMATEGKKLLSKAIDLARKARERIRKIPGLTCIDRDEVKAASGGDNDLDETKLAIGVKGIGLTGYQVSQKLNHEFGIQVEMADLHHVLVIVSIGDHREDLDRLVRAMEAISHQAMTLKSIIPINVKPPYAIASSRMNPREAFFSSHQSVPLEEALGKTAADIVTVYPPGIPLLIPGEEITQTVLDHLILMRETGATLDGLDSDNRLINIV
B2: M. blatticola ADC (Methanimicrococcus blatticola) (protein)
chain: MDQNATPIIDALREFDQKNITSYDVPGHKRGIREDDFQKLVGKEVYLMDVNSPVGMDTFAHPKGVIKHSLELAAEAYKADNAFYLVNGSSSGVQIMIMTVCYDGEKILIPRNAHKSVTNSLILSGAVPVFMEPEINQNFAIASGMTLKTIQKYVEANPDAKALFLVYPTYYGACADLEQIIEYAHSKDIVVMVDQAHGAHFSFSSALPKSAAELGADLVVASTHKTGGSLTQSAMLLHNEGLVKYHSIKKRVLMFHTTSPSYLLMASLESSRKLLATQGEEIFHELVHECRKVKKEISKIPGLSVLDENEGVTTMTYDPTKIVINVTKLGLDGFDVYDIMFEKYGIQMELAEPTIVLAVIGIGDTKETIWRLVDAFRDLSDTYYGKYEMLDIPEEIVYVPPQILSPRQAFYADKVSVKIGEAVGRVAAEAVMIYPPGIPICIPGELITAETIEEILYCQENSDCVQKDSKEKDHILVVDDSTE
B3: Psychrilyobacter sp. S5 ADC (Psychrilyobacter piezotolerans) (protein)
chain: MQNKTPLFDALKNYHKTDIVSFDVPGHKKRFQNEFSDYVGHKIIELDTNSMKELDILNNPTGVIREAHQLMADAYSADEAFFLVNGTTSGIQTMVMSACNPGDKIILPRNVHKSAINALILSGATPVYIDPEVDETLGISLGISVEKIKEALIKDPDIKAVFIINPTYYGAVSDLEEIIKICHEKNMVVLVDEAHGAHFPFHEKFPKNAMALGADMSAVSIHKTGGSLTQSSVLFLNHRRIKQERVKNMLNLTQTTSASYLLMTSLDVARKTLVTQGDEIFNDLLEMISKFREELNSIPGIRCFKSILSDKLYDFDDTKIGINLHGLGLTGFEGYDILREKYNIQMELADTHNILGIASIGDTWEDYQKLIDALKEMAENYEGNNQLIDFNELESLELVVSPRDAFYSETESIPLSEAIGKVSGESIMVYPPGIPLLIQGERITKDLIDHIYFLKEQKAVITGMNDKTLNNISILKGEHR
B4: C. exile ODC (Caldisericum exile AZM16c01) (protein)
chain: MEQERAPLYEAVSKYIKRKMIPFHMPGHSQGKGAPKILKRLFGDKFFDFDLTEVSGLDYLHYAQGVIREAENLASSLYGTEATIFLVNGTTAGVHAMILDSVRENEKIIIGRNSHRSVIGGILLAKAKPVFVQPEFNEEFGIITNVTPESIKKAITENPDAKAVLVTTPNYYGLQGRIKDIIDIVHENGMRALVDEAHGAHFPFNSKFPKSAIYLGADLVTQSAHKTLPTLTQTSFLHIPSKDVNVDRIEQILSIIESSSPSYIFMTALDVARREMALHGKEMWDKAIEVAEYARERISALDGFKVITDKTINGKDVYAFDPIKLTINVQELGYSGFEFEHILNKNGIEIELADLQNVLLFITIGTSKRDIDTLVSVLKRIEPRKEKSTVRMPKLPEAPSFAMLPFEAFQREFEVVPLRETKGRVSWGIVAPYPPGIPVLAPGMIIDEECIEFTQEVFEKGGLVQGSIRYGSEIAIRVVKGE
B5: H. thermocellum ADC (aADC) (Acetivibrio thermocellus ATCC 27405) (protein)
chain: MVLRMNQLKTPVFDAVKRYVESNVIQFHVPGHKQGAGLEELREYIGETALKMDANGMEDLDFANNPTGVIYESEMLAAQAFGAQHAYFLVNGTTSGVQAMIMSACEPGDKIILPRNAHKSTIGGIILSGAVPVYVQPEINEKLGIAMGITVESLKKAIKENPHAKAVFIINPTYYGIASDLKSLVRIAHRYEMAVLVDEAHGAHMSFHDDFPLTAMEVGADMSAVSTHKTGGSLTQSSLLLLRGNMISPERVKQVLNLTYTSSASYLLMCSLDIARKQLATKGSDMLEETLRLARMAREEINKIEGLYAFGKELIGTPGCHDFDETKLGICVSGLGYTGYEMEAKLRKEYNIQIEMSDLSNILAIVSIGDREENLVALINALKDIAAKTEKKEYPKPPIIPPTPKMIVSPRDAFYSPKKIVPLDKSVGEISGEMVMAYPPGIPVVCMGERITQDIVDYIKILKEQKTQLQGTADPYIDHIMVLGVD

Tests used:
C. botulinum ODC (aODC) = system: T1, C. botulinum ODC (aODC)
T1 construct: gene CLI_3176

[1] = system: F. necrophorum ODC (aODC); conditions: 50 mM HEPES pH 7.7, 100 mM NaCl, 20 μM PLP, 1 mM DTT, 26 °C
B. cihuensis ADC = system: T2, B. cihuensis ADC; conditions: 50 mM HEPES pH 7.7, 100 mM NaCl, 20 μM PLP, 1 mM DTT, 26 °C
T2 construct: gene aADC

purified protein [2] = substrate: NCCC[C@H](N)C(=O)O; assay: purified protein; conditions: 50 mM HEPES pH 7.7, 100 mM NaCl, 20 μM PLP, 1 mM DTT, 26 °C
purified protein [3] = substrate: NCCCC[C@H](N)C(=O)O; assay: purified protein; conditions: 50 mM HEPES pH 7.7, 100 mM NaCl, 20 μM PLP, 1 mM DTT, 26 °C
purified protein [4] = substrate: N=C(N)NCCC[C@H](N)C(=O)O; assay: purified protein; conditions: 50 mM HEPES pH 7.7, 100 mM NaCl, 20 μM PLP, 1 mM DTT, 26 °C

Molecule	Km (C. botulinum ODC (aODC))	Km [1]	Km (purified protein [4])	kcat (purified protein [4])	kcat/Km (purified protein [4])	also measured
NCCC[C@H](N)C(=O)O [L-ornithine]	600 ± 30 µM	650 ± 30 µM	–	–	–	–
NCCCC[C@H](N)C(=O)O [L-lysine]	2000 ± 90 µM	4000 ± 1700 µM	–	–	–	–
N=C(N)NCCC[C@H](N)C(=O)O [L-arginine]	3800 ± 250 µM	19000 ± 2300 µM	–	–	–	Km (B. cihuensis ADC): 450 ± 10 µM
B1	–	–	–	–	–	Km (purified protein [2]): 28000 ± 7200 µM; kcat (purified protein [2]): 0.17 s⁻¹; kcat/Km (purified protein [2]): 4.2 M⁻¹ s⁻¹; Km (purified protein [3]): 370 ± 70 µM; kcat (purified protein [3]): 0.25 s⁻¹; kcat/Km (purified protein [3]): 700 M⁻¹ s⁻¹
B2	–	–	650 ± 60 µM	–	–	–
B3	–	–	210 ± 20 µM	0.3 s⁻¹	1400 M⁻¹ s⁻¹	Km (purified protein [3]): 6600 ± 1300 µM; kcat (purified protein [3]): 0.06 s⁻¹; kcat/Km (purified protein [3]): 9.5 M⁻¹ s⁻¹
B4	–	–	540 ± 40 µM	0.04 ± 0.002 s⁻¹	82 ± 3.2 M⁻¹ s⁻¹	Km (purified protein [2]): 180 ± 10 µM; kcat (purified protein [2]): 0.11 s⁻¹; kcat/Km (purified protein [2]): 590 M⁻¹ s⁻¹
B5	–	–	130 ± 10 µM	0.05 s⁻¹	410 M⁻¹ s⁻¹	–
